This is an account of results in US20250034256A1 (EUCURE BEIJING BIOPHARMA, published 2025).

Numbering of substitutions follows the chain as printed. Names may count otherwise.

First the molecules themselves.
T1: mouse PD-1 (mPD-1) on transfected CHO cells (mouse, UniProt Q02242 25-288)
T1 sequence: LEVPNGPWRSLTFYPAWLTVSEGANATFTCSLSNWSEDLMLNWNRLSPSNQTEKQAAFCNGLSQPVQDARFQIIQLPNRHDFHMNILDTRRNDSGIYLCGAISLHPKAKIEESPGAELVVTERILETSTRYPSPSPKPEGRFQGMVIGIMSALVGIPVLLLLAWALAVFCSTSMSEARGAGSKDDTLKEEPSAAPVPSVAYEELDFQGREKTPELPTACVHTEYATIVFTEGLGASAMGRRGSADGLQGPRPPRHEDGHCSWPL

T2: monkey (rhesus macaque) PD-1 (rmPD-1) on transfected CHO cells (rhesus macaque, UniProt Q15116 25-288 (human entry))
T2 construct: also called monkey PD-1
T2 chain: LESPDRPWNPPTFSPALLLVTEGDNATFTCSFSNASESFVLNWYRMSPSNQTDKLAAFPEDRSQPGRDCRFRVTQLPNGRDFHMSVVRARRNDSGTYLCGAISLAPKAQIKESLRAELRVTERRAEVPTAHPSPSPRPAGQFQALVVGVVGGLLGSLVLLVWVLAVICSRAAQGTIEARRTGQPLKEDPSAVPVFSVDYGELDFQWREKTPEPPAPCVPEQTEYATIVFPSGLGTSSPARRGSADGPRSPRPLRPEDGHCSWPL

B1: mouse anti-hPD-1 antibody 25-1A7 (antibody, V domains shown)
VH: EVKLVESGGGLVQPGGSLKLSCAASGFTFSSYSMSWVRQTPEKRLEWVAHISSGGSSTYYPDTVKGRFTISRDNARNTLYLQMSSLKSEDTAMYYCTRQFYYGSSFWYFDVWGAGTTVTVSS
VL: DNVLTQSPVSLAVSLGQRATISCKASQSVDFDGDSYMNWYQQKPGQPPKLLIYAASNLESGIPARFSGSGSGTDFTLNIHPVEEEDAATYYCQQSNEDPPTFGGGTKLEIK
notes: Mouse monoclonal antibody purified from ascites
B2: 3F1-mHvKv-IgG4-S228P (antibody, V domains shown)
VH: QVQLQQSGAELAKPGASVKMSCKASGYTFTSYWMHWVKQRPGQGLEWIGYINPSTGYTEYNQKFKDKATLTADKSSSTAYMQLSSLTSEDSAVYYCARGVRYYFDYWGQGTTLTVSS
VL: DIVMSQSPSSLAVSAGEKVTMSCKSSQSLLNSRTRKNYLAWYQQKPGQSPKLLIYWASTRESGVPDRFTGSGSGTDFTLTISSVQAEDLAVYYCKQSYNLLTFGAGTKLELK
notes: Chimeric antibody: mouse 3F1 variable domains, human IgG4 constant domains (CL, CH1, CH2, CH3) with S228P (EU numbering); also called 18-3F1-mHvKv-IgG4-S228P; 3F1-mHyKy-IgG4-S228P
B3: 3F1-H3K2-IgG4-S228P (antibody, V domains shown)
VH: B2 VH with L11V, K67R, K74T, S76T, Q82E, T87R, S91T, T112L
VL: B2 VL with S5T, S9D, A15L, K18R, V19A, T69S, L89V, A105Q
notes: Humanized; human IgG4 constant domains with S228P (EU numbering)
B4: 3F1-H3K1-IgG4-S228P (antibody, V domains shown)
VH: B2 VH with L11V, K67R, K74T, S76T, Q82E, T87R, S91T, T112L
VL: B2 VL with S5T, S9D, A15L, K18R, V19A, M21I, T69S, L89V, A105Q
notes: as for B3
B5: 3F1-H1K2-IgG4-S228P (antibody, V domains shown)
VH: QVQLQQSGAEVKKPGASVKMSCKASGYTFTSYWMHWVRQAPGQGLEWIGYINPSTGYTEYNQKFKDRATLTADTSTSTAYMELSSLRSEDTAVYYCARGVRYYFDYWGQGTLVTVSS
VL: B2 VL with S5T, S9D, A15L, K18R, V19A, T69S, L89V, A105Q
notes: as for B3
B6: 3F1-H2K2-IgG4-S228P (antibody, V domains shown)
VH: B5 VH with R38K, A40R, T74K
VL: B2 VL with S5T, S9D, A15L, K18R, V19A, T69S, L89V, A105Q
notes: as for B3
B7: 3F1-H4K2-IgG4-S228P (antibody, V domains shown)
VH: B2 VH with L11V, K67R, S76T, Q82E, S91T, T112L
VL: B2 VL with S5T, S9D, A15L, K18R, V19A, T69S, L89V, A105Q
notes: as for B3
B8: 3F1-H4K3-IgG4-S228P (antibody, V domains shown)
VH: B2 VH with L11V, K67R, S76T, Q82E, S91T, T112L
VL: B2 VL with S5T, K18R, T69S, L89V, A105Q
notes: as for B3
B9: 3F1-H4K1-IgG4-S228P (antibody, V domains shown)
VH: B2 VH with L11V, K67R, S76T, Q82E, S91T, T112L
VL: B2 VL with S5T, S9D, A15L, K18R, V19A, M21I, T69S, L89V, A105Q
notes: as for B3
B10: 3F1-H1K3-IgG4-S228P (antibody, V domains shown)
VH: B5 VH
VL: B2 VL with S5T, K18R, T69S, L89V, A105Q
notes: as for B3
B11: 3F1-H1K1-IgG4-S228P (antibody, V domains shown)
VH: B5 VH
VL: B2 VL with S5T, S9D, A15L, K18R, V19A, M21I, T69S, L89V, A105Q
notes: as for B3
B12: 3F1-H2K1-IgG4-S228P (antibody, V domains shown)
VH: B5 VH with R38K, A40R, T74K
VL: B2 VL with S5T, S9D, A15L, K18R, V19A, M21I, T69S, L89V, A105Q
notes: as for B3
B13: 3F1-H3K3-IgG4-S228P (antibody, V domains shown)
VH: B5 VH with K12A, R38K, A40R, V113L
VL: B2 VL with S5T, K18R, T69S, L89V, A105Q
notes: as for B3
B14: 3F1-H2K3-IgG4-S228P (antibody, V domains shown)
VH: B5 VH with R38K, A40R, T74K
VL: B2 VL with S5T, K18R, T69S, L89V, A105Q
notes: as for B3
B15: 1A7-H2K2-IgG4-S228P (antibody, V domains shown)
VH: B1 VH with K3Q, K19R, T40A, E42G, A75S, R76K, S84N, K87R, S88A
VL: DNVLTQSPATLSVSPGERATLSCKASQSVDFDGDSYMNWYQQKPGQPPRLLIYAASNLESGIPARFSGSGPGTDFTLTISSLEPEDFATYYCQQSNEDPPTFGGGTKVEIK
notes: as for B3
B16: 1A7-H3K1-IgG4-S228P (antibody, V domains shown)
VH: B1 VH with K19R, T40A, E42G, A75S, R76K, S84N, K87R, S88A
VL: B15 VL with V13L
notes: as for B3
B17: 1A7-H2K1-IgG4-S228P (antibody, V domains shown)
VH: B1 VH with K3Q, K19R, T40A, E42G, A75S, R76K, S84N, K87R, S88A
VL: B15 VL with V13L
notes: as for B3
B18: 1A7-H3K2-IgG4-S228P (antibody, V domains shown)
VH: B1 VH with K19R, T40A, E42G, A75S, R76K, S84N, K87R, S88A
VL: B15 VL
notes: as for B3
B19: 1A7-H3K3-IgG4-S228P (antibody, V domains shown)
VH: B1 VH with K19R, T40A, E42G, A75S, R76K, S84N, K87R, S88A
VL: B15 VL with P71S, L82V
notes: as for B3
B20: 1A7-H1K1-IgG4-S228P (antibody, V domains shown)
VH: EVQLLESGGGLVQPGGSLRLSCAASGFTFSSYSMSWVRQAPGKRLEWVAHISSGGSSTYYPDTVKGRFTISRDNSKNTLYLQMNSLRAEDTAMYYCTRQFYYGSSFWYFDVWGQGTTVTVSS
VL: B15 VL with V13L
notes: as for B3
B21: 1A7-H1K2-IgG4-S228P (antibody, V domains shown)
VH: B20 VH
VL: B15 VL
notes: as for B3
B22: 1A7-H2K3-IgG4-S228P (antibody, V domains shown)
VH: B20 VH with L5V, Q114A
VL: B15 VL with P71S, L82V
notes: as for B3
B23: 1A7-H1K3-IgG4-S228P (antibody, V domains shown)
VH: B20 VH
VL: B15 VL with P71S, L82V
notes: as for B3

What is called Kd is the equilibrium constant for the complex coming apart. Usually koff stands for the rate constant with which the complex falls apart. One may read the kon as a measure of how fast the partners come together.

One assay deals with T1, mouse PD-1 (mPD-1) on transfected CHO …. Nature of the assay: flow cytometry on CHO cells transfected with mouse PD-1. How it is done: (§1) 25 μl CHO cells were added to each well.
(§2) After being washed with PBS (1200 rmp, 5 min) twice, 50 μl of FITC labeled anti-mouse IgG Fc antibody (anti-mIgG Fc-FITC) was added into each well 1:500 dilution, followed by incubated at 4° C. for 30 minutes, and then PBS wash (1200 rmp, 5 min). The signals for FITC were determined by flow cytometry.
(A flow cytometer gives signals particle by particle.)
With B1, the binding result was “no binding (tested: 1 µg/ml)”.

Another assay deals with T3, Histidine-tagged human PD-1 protein (hPD-1-His) (human, UniProt Q15116 25-170, limits assumed).
T3 construct: Soluble analyte in SPR; not shown: histidine tag
T3 sequence (Q15116 25-170 limits assumed): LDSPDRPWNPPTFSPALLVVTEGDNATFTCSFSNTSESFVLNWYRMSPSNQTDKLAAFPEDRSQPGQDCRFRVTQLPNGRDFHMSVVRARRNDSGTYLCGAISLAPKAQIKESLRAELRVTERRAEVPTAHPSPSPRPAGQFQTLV
Nature of the assay: SPR (Biacore T200), antibody captured on Protein A chip, hPD-1-His analyte, 1:1 fit. How it is done:
The binding affinity of the anti-hPD-1 antibodies were measured using surface plasmon resonance (SPR) using Biacore™ (Biacore™, INC, Piscataway N.J.) T200 biosensor equipped with pre-immobilized Protein A sensor chips.
Histidine-tagged human PD-1 proteins (hPD-1-His) at the concentration of 200, 100, 50, 25, 12.5, 6.25, 3.125, 1.5625 nM were then injected at 30 μL/min for 100 seconds. Dissociation was monitored for 400 seconds. The chip was regenerated after the last injection of each titration with Glycine (pH 2.0, 30 μL/min for 12 seconds).
As a person of ordinary skill in the art would understand, the same method with appropriate adjustments for parameters (e.g., antibody concentration) was performed for each tested antibody.
Background: SPR reads the build-up and loss of mass on a sensor chip optically.
For B2, binding was characterised by a dissociation constant (Kd) of 346 nM, the koff is 0.00128 s⁻¹ and the kon was 3700 M⁻¹ s⁻¹.

Take B3: the Kd came to 296 nM, the koff turned out to be 0.0015 s⁻¹ and the kon amounted to 5060 M⁻¹ s⁻¹.

For the molecule B4, the Kd was determined as 395 nM, the koff stood at 0.00179 s⁻¹ and the kon worked out at 4530 M⁻¹ s⁻¹.

As to B5, the affinity, expressed as Kd, was 294 nM; the koff is 0.00155 s⁻¹; the kon amounted to 5270 M⁻¹ s⁻¹.

With B6, the Kd was determined as 354 nM, the koff is 0.0017 s⁻¹ and the kon came to 4810 M⁻¹ s⁻¹.

Molecule B7 registered a Kd of 369 nM, a koff of 0.00177 s⁻¹ and a kon of 4800 M⁻¹ s⁻¹.

In the case of B8, binding was put at a Kd of 397 nM, the koff turned out to be 0.00161 s⁻¹ and the kon was found to be 4060 M⁻¹ s⁻¹.

B9 returned a Kd of 460 nM, a koff of 0.00204 s⁻¹ and a kon of 4420 M⁻¹ s⁻¹.

B10 returned a Kd of 275 nM, a koff of 0.00132 s⁻¹ and a kon of 4790 M⁻¹ s⁻¹.

Molecule B11 came in with a Kd of 376 nM, a koff of 0.00181 s⁻¹ and a kon of 4810 M⁻¹ s⁻¹.

B12 showed a Kd of 422 nM, a koff of 0.00192 s⁻¹ and a kon of 4550 M⁻¹ s⁻¹.

As for B13, the Kd came out at 318 nM, the koff turned out to be 0.00139 s⁻¹ and the kon is 4380 M⁻¹ s⁻¹.

B14: the affinity, expressed as Kd, was 329 nM; the koff is 0.00145 s⁻¹; the kon is 4410 M⁻¹ s⁻¹.

As to B15, the Kd turned out to be 57.8 nM, the koff turned out to be 0.00282 s⁻¹ and the kon was 48800 M⁻¹ s⁻¹.

Regarding B16, the Kd came to 39.9 nM, the koff was 0.00264 s⁻¹ and the kon was determined as 66200 M⁻¹ s⁻¹.

Turning to B17, the affinity, expressed as Kd, was 57.3 nM; the koff amounted to 0.0028 s⁻¹; the kon came out at 48900 M⁻¹ s⁻¹.

As to B18, the Kd worked out at 58.2 nM, the koff is 0.0028 s⁻¹ and the kon worked out at 48100 M⁻¹ s⁻¹.

Regarding B19, the Kd came to 12.9 nM, the koff was found to be 0.00132 s⁻¹ and the kon came out at 102000 M⁻¹ s⁻¹.

B20 had a Kd of 47.9 nM, a koff of 0.00272 s⁻¹ and a kon of 56800 M⁻¹ s⁻¹.

On to B21, for which binding was characterised by a dissociation constant (Kd) of 32.1 nM, the koff turned out to be 0.00265 s⁻¹ and the kon worked out at 82600 M⁻¹ s⁻¹.

The molecule B22 yielded a Kd of 11.9 nM, a koff of 0.00136 s⁻¹ and an on-rate (kon) of 115000 M⁻¹ s⁻¹.

Molecule B23 returned a Kd of 10.1 nM, a koff of 0.00119 s⁻¹ and a kon of 118000 M⁻¹ s⁻¹.

Another assay deals with T1, mouse PD-1 (mPD-1) on transfected CHO …. The assay is described as follows: flow cytometry, antibody at 1 µg/ml on CHO cells transfected with mPD-1 (CHO-mPD-1); anti-mIgG Fc-FITC against SSC-H. How it is done: as §1, §2
Take B1: the “% cells positive for Anti-mouse-IgGFc-FITC” value came out at 0.381%.

A further assay has as its target T2, monkey (rhesus macaque) PD-1 (rmPD-1) …. Nature of the assay: flow cytometry, antibody at 1 µg/ml on CHO cells transfected with rmPD-1 (CHO-rmPD-1); anti-mIgG Fc-FITC against SSC-H. How it is done: as §1, §2
Consider B1, for which the “% cells positive for Anti-mouse-IgGFc-FITC” value turned out to be 85%.
